Data as given in publication PMC6763497, “Argonaute bypasses cellular obstacles without hindrance during target search”.

Key:
CbAgo [1] = biological target: T1, CbAgo (Clostridium butyricum, UniProt P0DYD1 1-748); experiment: smFRET; 100 mM NaCl; mean dwell 37 s, koff 2.7e-2 s-1; 50 mM Tris-HCl pH 8.0, 100 mM NaCl (10-200 mM in salt series); temperature not given; TIRF smFRET, 100 ms; conditions: protein: recombinant, tags: His6-MBP removed by TEV, label: Cy3 guide, Cy5 target, 3' biotin target, 3 nt match (guide nt 2-4)
CbAgo [2] = biological target: T1, CbAgo; experiment: smFRET; shuttling time 0.4459 s at 200 mM NaCl; 50 mM Tris-HCl pH 8.0, 100 mM NaCl (10-200 mM in salt series); temperature not given; TIRF smFRET, 100 ms; conditions: protein: recombinant, tags: His6-MBP removed by TEV, label: Cy3 guide, Cy5 target, 3' biotin, two sites
CbAgo [3] = biological target: T1, CbAgo; experiment: smFRET; shuttling time 0.5124 s at 200 mM NaCl; 50 mM Tris-HCl pH 8.0, 100 mM NaCl (10-200 mM in salt series); temperature not given; TIRF smFRET, 100 ms; conditions: protein: recombinant, tags: His6-MBP removed by TEV, label: Cy3 guide, Cy5 target, 3' biotin dT, two sites
CbAgo [4] = biological target: T1, CbAgo; experiment: smFRET; shuttling rate 0.3188 s-1; 50 mM Tris-HCl pH 8.0, 100 mM NaCl (10-200 mM in salt series); temperature not given; TIRF smFRET, 100 ms; conditions: protein: recombinant, tags: His6-MBP removed by TEV, label: Cy3 guide, Cy5 target, 3' biotin dT, two sites
CbAgo [5] = biological target: T1, CbAgo; experiment: smFRET; shuttling time 2.11 s (2.03-2.19); 50 mM Tris-HCl pH 8.0, 100 mM NaCl (10-200 mM in salt series); temperature not given; TIRF smFRET, 100 ms; conditions: protein: recombinant, tags: His6-MBP removed by TEV, label: Cy3 guide, Cy5 target, 3' biotin dT, two sites
CbAgo [6] = biological target: T1, CbAgo; experiment: smFRET; three-state shuttling; 50 mM Tris-HCl pH 8.0, 100 mM NaCl (10-200 mM in salt series); temperature not given; TIRF smFRET, 100 ms; conditions: protein: recombinant, tags: His6-MBP removed by TEV, label: Cy3 guide, Cy5 target, 3' biotin, three sites 11 nt apart
CbAgo [7] = biological target: T1, CbAgo; experiment: smFRET; shuttling time as tandem 11 nt; 50 mM Tris-HCl pH 8.0, 100 mM NaCl (10-200 mM in salt series); temperature not given; TIRF smFRET, 100 ms; conditions: protein: recombinant; tags: His6-MBP removed by TEV; label: Cy3 guide; Cy5 target; 5' biotin strand; fork 2:3, 17 bp stem
CbAgo [8] = biological target: T1, CbAgo; experiment: smFRET; 17 bp blockade, shuttling; 50 mM Tris-HCl pH 8.0, 100 mM NaCl (10-200 mM in salt series); temperature not given; TIRF smFRET, 100 ms; conditions: protein: recombinant; tags: His6-MBP removed by TEV; label: Cy3 guide; 3' biotin dT target; strands 2:3 pair over 17 bp, ss flanks
CbAgo [9] = biological target: T1, CbAgo; experiment: smFRET; 21 bp blockade; 50 mM Tris-HCl pH 8.0, 100 mM NaCl (10-200 mM in salt series); temperature not given; TIRF smFRET, 100 ms; conditions: protein: recombinant; tags: His6-MBP removed by TEV; label: Cy3 guide; 3' biotin dT target; strands 2:3 pair over 21 bp, ss flanks
CbAgo [10] = biological target: T1, CbAgo; experiment: smFRET; 25 bp blockade; 50 mM Tris-HCl pH 8.0, 100 mM NaCl (10-200 mM in salt series); temperature not given; TIRF smFRET, 100 ms; conditions: protein: recombinant; tags: His6-MBP removed by TEV; label: Cy3 guide; 3' biotin dT target; strands 2:3 pair over 25 bp, ss flanks
CbAgo [11] = biological target: T1, CbAgo; experiment: smFRET; Lin28b bound between targets; shuttling; 50 mM Tris-HCl pH 8.0, 100 mM NaCl (10-200 mM in salt series); temperature not given; TIRF smFRET, 100 ms; conditions: protein: recombinant; tags: His6-MBP removed by TEV; label: Cy3 guide; Cy5 target; hairpin between two ss target sites
CbAgo [12] = biological target: T1, CbAgo; experiment: smFRET; stable beyond photobleaching time; 50 mM Tris-HCl pH 8.0, 100 mM NaCl (10-200 mM in salt series); temperature not given; TIRF smFRET, 100 ms; conditions: protein: recombinant, tags: His6-MBP removed by TEV, label: Cy3 guide, Cy5 target, 3' biotin target
CbAgo [13] = biological target: T1, CbAgo; experiment: smFRET; 100 mM NaCl; 87.8% shuttling, 13.5 events per binding; 50 mM Tris-HCl pH 8.0, 100 mM NaCl (10-200 mM in salt series); temperature not given; TIRF smFRET, 100 ms; conditions: protein: recombinant, tags: His6-MBP removed by TEV, label: Cy3 guide, Cy5 target, 3' biotin, two sites
CbAgo [14] = biological target: T1, CbAgo; experiment: smFRET; 15.1% shuttling; strongly bound; 50 mM Tris-HCl pH 8.0, 100 mM NaCl (10-200 mM in salt series); temperature not given; TIRF smFRET, 100 ms; conditions: protein: recombinant, tags: His6-MBP removed by TEV, label: Cy3 guide, Cy5 target, 3' biotin, two sites, 6 nt match

B1: Guide 3nt (2-4) / single target (ssDNA)
DNA 1: CGAGTATTTTTTTTTTTTTTTT
DNA 2: TTTTTTTTTTTTTTTTTTTTTTTTTTTTTTTTTTTACTACCTCTTTTTTTTTTTTTTTTTTTTTTTTTTTTTT
modifications: guide 5' phosphate; amino-C6-dT at guide nt 9 and target nt 28
binding result (CbAgo [1]): binds

B2: Guide 3nt / tandem 15 nt (ssDNA)
DNA 1: CGAGTATTTTTTTTTTTTTTTT
DNA 2: TTTTTTTTTTTTTACTACCTCTTTTTTTACTACCTCTTTTTTTTTTTTTTTTTTTTTTTTTTTTTT
modifications: guide 5' phosphate; amino-C6-dT
binding result (CbAgo [2]): binds

B3: Guide 3nt / tandem 64 nt (ssDNA)
DNA 1: CGAGTATTTTTTTTTTTTTTTT
DNA 2: TTTTTTTTTTTTTTACTACCTCTTTTTTTTTTTTTTTTTTTTTTTTTTTTTTTTTTTTTTTTTTTTTTTTTTTTTTTTACTACCTCTTTTTTTTTTTTTTTTTTTTTTTTTTTTTTTT
modifications: guide 5' phosphate; amino-C6-dT; target 3' phosphate
binding result (CbAgo [3]): binds

B4: Guide 3nt / tandem 92 nt (ssDNA)
DNA 1: CGAGTATTTTTTTTTTTTTTTT
DNA 2: TTTTTTTTTTTTTTACTACCTCTTTTTTTTTTTTTTTTTTTTTTTTTTTTTTTTTTTTTTTTTTTTTTTTTTTTTTTTTTTTTTTTTTTTTTTTTTTTTTTTTTTTACTACCTCTTTTTTTTTTTTTTTTTTTTTTTTTTTTTTT
modifications: guide 5' phosphate; amino-C6-dT; target 3' phosphate
binding result (CbAgo [4]): binds

B5: Guide 3nt / tandem 120 nt (ssDNA)
DNA 1: CGAGTATTTTTTTTTTTTTTTT
DNA 2: TTTTTTTTTTTTTTACTACCTCTTTTTTTTTTTTTTTTTTTTTTTTTTTTTTTTTTTTTTTTTTTTTTTTTTTTTTTTTTTTTTTTTTTTTTTTTTTTTTTTTTTTTTTTTTTTTTTTTTTTTTTTTTTTTTTTACTACCTCTTTTTTTTTTTTTTTTTTTTTTTTTTTTTTT
modifications: guide 5' phosphate; amino-C6-dT; target 3' phosphate
binding result (CbAgo [5]): binds

B6: Guide 3nt / triple target (ssDNA)
DNA 1: CGAGTATTTTTTTTTTTTTTTT
DNA 2: TTTTTTTTTTTTACCTCTTTTTTACCTCTTTTTTACCTCTTTTTTTTTTTTTTTTTTTTTTTTTTTTTT
modifications: guide 5' phosphate; amino-C6-dT
binding result (CbAgo [6]): binds

B7: Guide 3nt / 11 nt Y-fork (mixed)
DNA 1: CGAGTATTTTTTTTTTTTTTTT
DNA 2: TTTTTTTTTTTTTTTTTTTTTTTTCTCTTTGGCGACGGCAGCGAGGC
DNA 3: GCCTCGCTGCCGTCGCCATTTTTTCTCTTTTTTTTT
modifications: guide 5' phosphate; dye-labelled T in target
binding result (CbAgo [7]): binds

B8: Guide 3nt / 36 nt target with 17 nt block (mixed)
DNA 1: CGAGTATTTTTTTTTTTTTTTT
DNA 2: TTTTTTTTTTTTTTACTACCTCTCGGACCAACAGCGGGTACGGCTGTGCTACTACCTCTTTTTTTTTTTTTTTTTTTTTTTTTTTTTTTT
DNA 3: ACAGCCGTACCCGCTGT
modifications: guide 5' phosphate; labelled T in block
binding result (CbAgo [8]): binds

B9: Guide 3nt / 36 nt target with 21 nt block (mixed)
DNA 1: CGAGTATTTTTTTTTTTTTTTT
DNA 2: TTTTTTTTTTTTTTACTACCTCTCGGACCAACAGCGGGTACGGCTGTGCTACTACCTCTTTTTTTTTTTTTTTTTTTTTTTTTTTTTTTT
DNA 3: GCACAGCCGTACCCGCTGTTG
modifications: guide 5' phosphate; labelled T in block
binding result (CbAgo [9]): binds

B10: Guide 3nt / 36 nt target with 25 nt block (mixed)
DNA 1: CGAGTATTTTTTTTTTTTTTTT
DNA 2: TTTTTTTTTTTTTTACTACCTCTCGGACCAACAGCGGGTACGGCTGTGCTACTACCTCTTTTTTTTTTTTTTTTTTTTTTTTTTTTTTTT
DNA 3: TAGCACAGCCGTACCCGCTGTTGGT
modifications: guide 5' phosphate; labelled T in block
binding result (CbAgo [10]): binds

B11: Guide 3nt / Lin28 double target (mixed)
DNA 1: CGAGTATTTTTTTTTTTTTTTT
DNA 2: TTTTTTTTTTTTTTTTTTTACTACCTCTTTTTTTTTTTTTTTTTTTTGCGCTATGCGGTTGTATAGTTTTAGGGTCACACCCACCACTGGGAGATAACTATACAATCGCATAGCGCTTTTTTTTTTTTTTTTTTTTTTTTTTTTTTTTTACTACCTCTTTTTTTTTTTTTTTTT
modifications: guide 5' phosphate; amino-C6-dT
binding result (CbAgo [11]): binds

B12: Guide 7nt (2-8) / single target (ssDNA)
DNA 1: CGAGGTAGATTTTTTTTTTTTT
DNA 2: TTTTTTTTTTTTTTTTTTTTTTTTTTTTTTTTTTTACTACCTCTTTTTTTTTTTTTTTTTTTTTTTTTTTTTT
modifications: guide 5' phosphate; amino-C6-dT
binding result (CbAgo [12]; named 7 nt match (nt 2-8)): binds

B13: Guide 8nt (2-9) / single target (ssDNA)
DNA 1: CGAGGTAGTTTTTTTTTTTTTT
DNA 2: TTTTTTTTTTTTTTTTTTTTTTTTTTTTTTTTTTTACTACCTCTTTTTTTTTTTTTTTTTTTTTTTTTTTTTT
modifications: guide 5' phosphate; amino-C6-dT
binding result (CbAgo [12]; named 8 nt match (nt 2-9)): binds

B14: Guide 3nt / tandem 22 nt (ssDNA)
DNA 1: CGAGTATTTTTTTTTTTTTTTT
DNA 2: TTTTTTTTTTTTTACTACCTCTTTTTTTTTTTTTTACTACCTCTTTTTTTTTTTTTTTTTTTTTTTTTTTTTT
modifications: guide 5' phosphate; amino-C6-dT
binding result (CbAgo [13]): binds

B15: Guide 6nt / tandem 22 nt (ssDNA)
DNA 1: CGAGGTATTTTTTTTTTTTTTT
DNA 2: TTTTTTTTTTTTTACTACCTCTTTTTTTTTTTTTTACTACCTCTTTTTTTTTTTTTTTTTTTTTTTTTTTTTT
modifications: guide 5' phosphate; amino-C6-dT
binding result (CbAgo [14]): binds
